Several values for one entry are separate records, joined by “and”; a condition that tells them apart may be missing. Identical values can stand only once.
B1: Nb21 (VHH)
VHH: QVQLVESGGGLVQAGGSLRLSCAVSGLGAHRVGWFRRAPGKEREFVAAIGANGGNTNYLDSVKGRFTISRDNAKNTIYLQMNSLKPQDTAVYYCAARDIETAEYTYWGQGTQVTVSS
B2: Nb4 (VHH)
VHH: QVQLVESGGGLVQAGGSLRLSCVASGSGFEPNAMGWYRQAPGKQRELVAGITSGGNANYADSVKGRFTISRDNVKNTVYLQMNSLKPEDTAVYYCNAVGPRFNPRGSPTNYWGQGTQVTVSS

Target: SARS-CoV-2 S protein (C-terminally truncated, on pseudotyped virus) (SARS-CoV-2 (Wuhan-Hu-1), UniProt P0DTC2 14-1254)
Experiment: cell-based or functional assay

| Binder | IC50 (pseudovirus neutralization) | IC90 (pseudovirus neutralization) |
| --- | --- | --- |
| B1 | 1900 ng/ml and 141 nM | 3230 ng/ml and 239 nM |
| B2 | 41 nM and 554 ng/ml | 4490 ng/ml and 332 nM |

From US20240132577A1 (US Dept. of Health and Human Services, published 2024)
